Source: the DeepSol protein solubility set

Assay: soluble on expression in E. coli; label from the status in PepcDB or PDB records

| Sequence | soluble on expression in E. coli |
| --- | --- |
| MSLSNYISIKGAKVNNLKNIDVNIPRNKLVVITGLSGSGKSSLAFDTLYAEGQRRYVESLSSYARQFLGRMSKPECDFIKGIPPAIAIEQKVNSRNPRSTVGTSTEIYEYLRLLYARVGKTYSPISGQLVKKHSIEDIVNCMLSFPKGTKYTVLTPMMPREGRTLLQQLEMDLKQGFTRIEVNREIVRIEDFLQQTAAEDKKQNIYLLVDRMTADDSKDSISRLTDSAETAMYEGDGNCLLRFYSADGSTQLFSFSTKFETDGIKFEEPNDQMFSFNSPLGACPECEGFGKVIGIDEHLVIPNRALSVYDGAVLCWRGEKMGEWLQEFIHEAPAHDFPIFAPYYELTQEQKDYLWHGPRNKACIDSFFKMLEENQYKIQYRVMLARYRGKTICPVCHGTRLKKEAGYVKVGGKSISQLVDLPIHDLKEFFRTLELDAHDTAIAKRILTEITNRINFLMDVGLGYLTLNRLSNSLSGGESQRINLATSLGSSLVGSLYILDEPSIGLHSRDTDRLIKVLRQLQELGNTVVVVEHDEEIIRAADYIIDIGPQAGRLGGQIVYQGNMNDLQRNSNSYTVRYLLGEEGHHHHHH | not soluble |
| MHYFSIHDQSGRHIGFFILLADDESEARPQSGRFAVKLEGGMENHVLSPFGQTEIPQYWRVVKDRIELFFDEAPVGTLRNEYLTVSGQTFVLNDLTGNM | not soluble |
| AEQLRGEPWFHGKLSRREAEALLQLNGDFLVRESTTTPGQYVLTGSQSGQPKHLLLVDPEGVVRTKDHRFESVSHLISYHMDNHLPIISAGSELCLQQPVERKLLEH | soluble |
| MSLKAPVDFEQEVAPLLSQRCVSCHSPNIKKGELSLAGPEDLLANGYVVPGDPAGSYLLEVVSPAGDDPAAMPKLGDALAEPEVALLRRWIEQGAVWPDGFVIREASKADRSWWSLQPLADIHPPEVAAAPAAWRQNPIDRFVWAKLSEANLKPNSPADRRTLIRRATFDLTGLPPTAEEIDTFVASDSPDAYPQLIDRMLASPRYGERWGRHWLDVIRFGESRGFERNQIITNLWPFRDYVIRSINEDKPFDQFIREHLAGDVIAPNTPQVEVGSAFLVAGPYDDVGNEGHHHHHH | soluble |
| MDIVQLGPAELKAWMDEGRMFCLLDVRTDEETAVCSLPNALHIPMNLIPLRQNELPDDVPLVVYCHHGIRSLHTAMYLADAGFENLYNLQGGIDAWAAEIDGNMMRY | not soluble |
| MGSDKIHHHHHHMLPALWVAKTGLSAQDTNLTVISNNLANVSTTGFKRDRAEFADLLYQIKRQPGAQSTQDSELPSGLQVGTGVRIVGTQKSFVAGSLQTTDNPLDMAVNGRGFFQILQPDGTVSYTRDGTFHLNSDGQIVTDNGYALEPAIVVPNDAQTFTVGQDGTVSITTAGNPAAQVIGNIQTADFINPAGLQAIGDNLFLETAASGAPQVGTPGLNGFGTTLQQTLENSNVSTVEELVNMITTQRAYEMNSKVISTADQMLSFVTQQL | not soluble |
| GPGSMPSSSLSQSSAPRQPPLGDSGECRCSTLPPKPPLAGVEEPQPSDAEDPIPFLATMSMNQVGFLHARKCTRRDLLGTSLGNCPASENVLANGASHGIEATPLPGSRSATSTSFTSPTSAPLAPMAESECDVSYLEQMLMQIMDAAKAFANTSQAPSCDTAPQSADTLPACEYLLRKCFHFDTGAFKPRQQEVCLSVLAGVNTLAVCPTGWGKSLCFQFPMLVHRLLFQCRYTRWCRQAATAPAAAQQSSETAVKEGQTGASRFAGALPSAGLPAHLFSRFCVVVSPLLALMEDQAEKINAVDHLSAFVLSAKVGADREARVLAQLESPVCPLDILFVSPEN | not soluble |
| YNSGKLEEFVQGNLERECMEEKCSFEEAREVFENTERTTEFWKQYEEEEEE | soluble |
| MSEMQMDCALDLMRRLPPQQIEKNLIDLIDLAPDLCEDLLSSVDQPLKIAKDKEHGKDYLLCDYNRDGDSYRSPWSNSYYPPLEDGQMPSERLRKLEIEANYAFDQYREMYYEGGVSSVYLWDLDHGFAAVILIKKAGDGSKMIRGCWDSIHVVEVQEKTTGRTAHYKLTSTAMLWLQTNKQGSGTMNLGGSLTRQQEQDANVSESSPHIANIGKMVEEMENKIRNTLNEIYFGKTKDIVNGLRSTQSLADQRQQAAMKQDLAAAILRRNVKPESN | not soluble |
| MKGLCSSDTRQYLPGHQLWEAPVQIRRYSAVIHHATKCQWGVIPSRTINVSLHQTRRMRVAAVGIGGAGGRIVERLWQDNERRETTYLGAACAVDTDTEALDELDALPADRRYAFGLSETNGTGTNGDRTSGTAAIEDERLEVRRAIDELVTSDIDAVVLVAGLAGGTGSGATAHIADALREVYSIPVYCLSVLPAGRDDDAAANTMQALRALESTVDGQILFDNEAWLGSGQTVESASETLNETIVARLGALFAAGEATAPDAVGQSVVDASEIINTLSDAGFTTLGYASQDLQTGAGSGDGTVIDQLKNRFLGDNADDVDEIEAYNAVETTLRRAVRGKLTAQCELDSADRALAVFAGPPAWLIRDAVTDGRRWLTEELQSPEVRSGLEHHHHHH | not soluble |
| MTALSQLYPQPLWQWFEQICAIPHPSKHEQSLSQHIQAWAKQKQLDVVEDAVGNVIIRKAATPGMEDRKVVVIQAHIDMVPQKNADKVHDFIKDPIEAYVDGDWVKAKGTTLGADNGIGMASALAILGSDDIKHGPLEVLLTIDEEAGMTGAFGLQAGMLNAEILINTDSEQEGEIYMGCAGGVDAQITLPMVWQASEQSYASFSLHLSGLKGGHSGVNIHLGRGNANKILARFLFENADELALELTQFTGGSLRNAIPREANISFMLPAENIDALKEKVHAFEALMRAELAIADPDLRLVLSNIATPKRVMSENSQNTLIDLLHVCPNGVMRMSDEVTGVTETSLNVGVISTNDEEVGILCLIRSLIDSGRSQVEGMLNALTNLAGADVEFSGAYPGWKPDNTSPVMAIVRETYESIYHKEPVIMVIHAGLECGLFKKPYPEMDMVSIGPTIRYPHGPDEMVNITTVGQYWDLLVAVLERIPVKALEHHHHHH | not soluble |
| MGSDKIHHHHHHMIKVAVVGTVGIPACYGGFESLVENLTSYTSNKIEYDVFCSSKSYTNKRSHYNGAQLSYIPLNANGVQSIFYDIISLIFCIFKKPDVTLVLGVSGCLFLPVYRLLSKSKIVTNIDGLEWKRDKWSKWAKKFLKFSEYMAVKFSDVVITDNKAIGDYVNAEYSKDNVVIAYGGDHAIIEGKHVGPEQDYYLSLCRIEPENNVQMILNAFSKSQHKLKFVGNWNSSEFGRKLKREFSDQPNIDIVDPIYDVNQLFKLRSECKGYVHGHSAGGTNPSLVEAMHFEKTIFAFDCNFNRYTTEDKAVYFSSSKELNDKLTEVTKDELAVISTDMKQIADRRYTWKVINHMYEETYL | not soluble |
| RPQTTNSWQNSEIEGIDIMLAIDVSTSMLAEDLKPNRLEAAKDVAAEFINGRPNDNIGITLFAGESFTQCPLTVDHAVLLNLFQGIQCDIIEDGTAVGMGIANAVTRLKDSKAKSKVIILLTDGTNNKGDISPLTAAEIAKSFGIRVYTIGVGTNGMAPYPVRVGGTTQYINTPVEIDEKTLTQIAGTTDGNYFRATSNSKLKEVYEEI | not soluble |
| LTARFTNTELNGYQRLMSYFEEMVKVEDDVCNANKCLLVKLSAEVSDLSEPMRIALRRGADKTIQAMAECIDVGIQDGSIPSGDSALLARQIYYLWNGASLLNKLYQDQEALTQSLTYTQHLLQNTRTCP | not soluble |
| MNNAALRHWKQQQRARLRELRQQVPVTQRMLWSDAITAVLTQGFPFLENQRIGFYWPHQGEYDPIPAMTFLRTRGATLALPEVISKDEPLRFIEWWPEAPMKKDIYGIPFPDNTRGITVDSIIIPLLGFDEQGYRLGYGSGYFDRTLAAMSPRPLAIGVAFEILRLPTIHPQQHDIPMDYIVTEQSILHRTDTGLVPLTAPIVQSETALEHHHHHH | soluble |
| MSLSDKIRIGMTVSSTGSFVLASQSGVRGVEVWVDDVNRRGGIEIKGKKYPVELVKLDDRSDKQMVTRVYERLIVDEKVDLVFAPFGSTLTAAAGTVTERLGKYMMVWSAASDDLYKQGFKYMVSGTQMPVSAMLRAPMALAGKLGVKKAAILYSDEPFPAGLADGGRAQAAKNGIDVVLYEKYPKGQKDFSTLLQKAKAAGADALVPTSYEGDLISMTRQMKQLDINFPYTFMVYASTPQFQAIGADSNYIFSHTNYHPAINWKVNAGLTREQFGKAYDTLFPKAEFPPDFQTALAYGAGALTEEIIKKAGATDAAALKQASMDLSDKVTVMAGPYAIDETGKQLQMPFPVVQLLPGKGMVPVYPEDVAVEKAVYPAPAWNKAKGIITITTDPNSSSVDKLAAALEHHHHHH | soluble |
| MPSGVCEPKERSPCMNKIDKLDKELEKAREKAAEWQAKIRELEKQKQEEENSQIVQAVRSLKLTPAQLMAFLNDPKNSLTASGHTDPKPEAPEKEDTAHEEN | not soluble |
| MGSDKIHHHHHHMTARLESNAPVQYAFRLDDREVAVNPLIGRPLRLEYLGSIFCTHCGRKTKKSFSQGYCYPCFTRLAQCDSCIVSPEKCHYEQGTCREPEWGERFCMTDHVVYLANSSGVKVGITRASQIPTRWIDQGARQALPILRVATRQQSGLVEDLLRSQVADRTNWRAMLKGEAEPVDLAAVREQLFDQCADGLRELQQRFGLQAIQPVIDLDPLEIAYPVEAYPSKVASLDLEKTPIVEGTLRGIKGQYLILDTGVINIRKYTAYQIAVHH | not soluble |
| GSMSLNDFLSSVLPVSEQFEYLSLQSIPLETHAVVTPNKDDKRVPKSTIKTQHFFSLFHQGKVFFSLEVYVYVTLWDEADAERLIFVSKADTNGYCNTRVSVRDITKIILEFILSIDPNYYLQKVKPAIRSTCPREILTKICLFTRPASQYLFPDSSKNSKKHILNGEELMKWWGFILDRLLIECFQNDTQAKLRIPGEDPARVRSYLRGMKYPLWQVGDIFTSKENSLAVYNIPLFPDDPKARFIHQLAEEDRLLKVSLSSFWIELQERQEFKLSVTSSVMGISGYSLATPSLFPSSADVIVPKSRKQFRAIKKYITGEEYDTEEGAIEAFTNIRDFLLLRMATNLQSLTGKREHRERNQPVPASNINTLAITMLKPRKKAKALPKT | soluble |
| MANFNVPKLGVFPVAAVFDIDNVPEDSSATGSRWLPSIYQGGNYWGGGPQALHAQVSNFDSSNRLPYNPRTENNPAGNCAFAFNPFGQYISNISSAQSVHRRIYGIDLNDEPLFSPNAASITNGGNPTMSQDTGYHNIGPINTAYKAEIFRPVNPLPMSDTAPDPETLEPGQTEPLIKSDGVYSNSGIASFIFDRPVTEPNPNWPPLPPPVIPIIYPTPALGIGAAAAYGFGYQVTVYRWEEIPVEFIADPETCPAQPTTDKVIIRTTDLNPEGSPCAYEAGIILVRQTSNPMNAVAGRLVPYVEDIAVDIFLTGKFFTLNPPLRITNNYFADDEVKENTVTIGNYTTTLSSAYYAVYKTDGYGGATCFIASGGAGISALVQLQDNSVLDVLYYSLPLSLGGSKAAIDEWVANNCGLFPMSGGLDKTTLLEIPRRQLEAINPQDGPGQYDLFILDDSGAYASFSSFIGYPEAAYYVAGAATFMDVENPDEIIFILRNGAGWYACEIGDALKIADDEFDSVDYFAYRGGVMFIGSARYTEGGDPLPIKYRAIIPGLPRGRLPRVVLEYQAVGMSFIPCQTHCLGKGGIISKV | not soluble |
| MRPPLIERYRNLLPVSEKTPVISLLEGSTPLIPLKGPEEARKKGIRLYAKYEGLNPTGSFKDRGMTLAVSKAVEGGAQAVACASTGNTAASAAAYAARAGILAIVVLPAGYVALGKVAQSLVHGARIVQVEGNFDDALRLTQKLTEAFPVALVNSVNPHRLEGQKTLAFEVVDELGDAPHYHALPVGNAGNITAHWMGYKAYHALGKAKRLPRMLGFQAAGAAPLVLGRPVERPETLATAIRIGNPASWQGAVRAKEESGGVIEAVTDEEILFAYRYLAREEGIFCEPASAAAMAGVFKLLREGRLEPESTVVLTLTGHGLKDPATAERVAELPPPVPARLEAVAAAAGLL | soluble |
